For one assay, the target named is CRP-1 peptide (C-terminal amide (amidate version); cyclized). Nature of the assay: SPR. Background: Surface plasmon resonance follows binding to a sensor surface in real time, without labels.
The next assay concerns the target VEGF-114 peptide (C-terminal amide (amidate version); cyclized). Nature of the assay: SPR.

Data on 2 molecules can be found in PMC8382222 (2021).

The Kd is the free concentration of one partner at which half of the binding sites on the other are occupied at equilibrium, for simple one-to-one binding. A higher Kd goes with weaker binding. As usually defined, the koff is the rate constant with which the complex falls apart. Low values mean a long-lived complex, high ones a short-lived complex.

B1: C-reactive protein (CRP) (natural protein)
chain: QTDMSRKAFVFPKESDTSYVSLKAPLTKPLKAFTVCLHFYTELSSTRGYSIFSYATKRQDNEILIFWSKDIGYSFTVGGSEILFEVPEVTVAPVHICTSWESASGIVEFWVDGKPRVRKSLKKGYTVGAEASIILGQEQDSFGGNFEGSQSLVGDIGNVNMWDFVLSPDEINTIYLGGPFSPNVLNWRALKYEVQGEVFTKPQLWP
In the assay with CRP-1 peptide, B1 displayed a Kd of 12 µM and a koff of 0.046 s⁻¹.

B2: vascular endothelial growth factor (Recombinant Human VEGF165) (ligand)
chain: APMAEGGGQNHHEVVKFMDVYQRSYCHPIETLVDIFQEYPDEIEYIFKPSCVPLMRCGGCCNDEGLECVPTEESNITMQIMRIKPHQGQHIGEMSFLQHNKCECRPKKDRARQENPCGPCSERRKHLFVQDPQTCKCSCKNTDSRCKARQLELNERTCRCDKPRR
Regarding B2, in the assay with VEGF-114 peptide, the affinity, expressed as Kd, was 10.3 µM and the koff was found to be 0.75 s⁻¹.
